A protein production outcome set (Wang et al. 2014)

Test: label from the status in PepcDB records
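Further: failed if final PepcDB status was selected cloned or expressed and not failed if soluble or beyond.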

Sequence | protein production
MISHFGAPLIRYDPALQGHAVPQLDMKTFTRRQHRPRPLILAVGLGLGIALTAPLAAAQNAPSSQPWRDTALTADQRADRLLAQMTEDEKFQMLRSYLGLGTDKIPKPAGALGSAGYVPGIARLGIPAQQLADAGVGVTNPGGIRKGDYATAMPSVLSTASSWNRQLAYAGGKTMGRESWQQGFNVLLAGSVNLQRDPRNGRNFEYAGEDPLLAGTMVGESIRGVQSEHVLSTMKHFALNDMETRRNFHSAQIGEQAMHESDLLAFEIALKIGDPASVMCSYNKINGVYGCEHDYLLNQVLKQEWKYPGYVMSDWGGVHSGSKAALAGLDQESAGEVFDVAVFFDAPLRMAVSAGVVPRARFDDMVKRILRSLFAHGAFDYPTQRQPIDGKAGLLAAQHVAEAGSVLLRNEQAMLPVSQDVRRIAVIGGYADKGVMSGGGSSRVDVTINGGNAVPGITPTTWPGPVIIHPSSPLQALRAALPNAQIDYVDGKDRAAAARAAKAADVAIVFATQWATESVDLPDMRLPDNQDALIEAVAKANPKTTVVLETNGPVRMPWAERVPAVLQAWYPGIGGGEAIANLLTGTVNPSGHLPVTWPVDESQLPRPSIPGLGFKPAKPGEDTIDYAIEGANVGYKWFAAHKLTPRYPFGHGLSYTQFRMDGLRVEANGSQLTASFEVENIGQREGAAVPQLYVTLPDGHATPLRLIGWQKLTLKPGEKRSVQVVAEPKTLADFDAQARRWTIAAGTYRVQLARSASEPVQSAAVTLQAAQLP | failed
MISILRRGLLVLLAALPLLANAASTPSAHDLVQDTTTRLLADLAANKEKYKQSPNDFYNALNSIVGPVVDADGISRSIMTVKYSRKATPEQMVRFQENFKRSLMQFYGNALLEYNNQGITVSPAKDESGTRTSVDMQVKGNNGAIYPVSYTLEKINDEWKVRNVIINGINIGKLFRDQFADAMQRNGNNLDKTIDGWAGEVAKAKEVTEDAAQKAAQLEHHHHHH | not failed
MISMPKEKVVIIIPTYNEEDNISNTIDLILKETYSLADYQVDILVFDSHSTDSTAHIVRELTYTSQRIHFAQEPQKTGLGSAYLQAMRIAIDELNADVVFEFDADGSHQPCYIAPMLELLKQHDVVVGSRYISGGRIPSNWAFHRKLLSVGGNWVARMLLTGKYKDLTSGLRAIRTNLLKKLLPSNFLSNNYAYKLELYWLLHKAKARIVEFPIQFIDREKGKSKLPKNSMIDTLRVLFTLRFRELRQYLTMCCVGSIGALIQFSLYNWLRSSNHSALVSSQVAISAAIISNFIFHHSITFKQKTDFRITKTTFSRFTQFIIYSTFMVYFQSLWVHIFVHSFGQGVLKENIIVASGLGIGSIINYLFYSNIIWSSKGTHSLNSNSSKETQI | failed
MISNEHINTQNFWYQLVEKMAIGVLVINNEGQILYANDYAVQLFGAIRTELIGTNFLYPMAADETQEVEILKSSNEILTAHMTVRKSIWENRQVWIISLFDIT | failed
MISSYGDVDMELRDEDLILEEVRDYLTAYLRNIHQEDIILDNERVVVDLNQLYNYGLMEFVEFLINNPQKGIDFIKECYNDAYYTLRNEYPTNVIIAVKNLPKIFKTTRKGKIFTIEDIRSKTLGKLVEFEGIIVMASKIRPMLKKAYYICPKCGREVVREIDILNTDSEKAVCECGAELNLIEHKSIYTDFQEIKVQQPLDLMENPEEPPKYITVFLENSPGIYAGRVKITGIPIKVKKSKKLPIYDIHVKALHCEVLDGEVKIKLTNSDIENIKKIAKRKDVVNILADRLIPEIKGHSAIKKAVLLQQIKGVKKPGKRADIHILLITDPGIGKTVILRKIAEIPGNLYGSVTTATGVGLTAAVVREKTEIGEDTWVIKPGLLVKAHKGTACIDELTVNKELQSYVLEAMESQTIHISKGGINAKLPAECAILAACNPRWGRFNPEVSVAEQINIPAPLLSRFDLIFPIRDVSDKDKDKDIAEYIVDLHRAYLDEKINREMGLDYLEVDGVKIDKEFIIKYIYYARQKKPIISEKAKELFVNYYVEMRKKHQITARQLEAAIRIAEAHAKAKLKDVVDEEDAKEAINIITECLKEIAYDPETGIFDVDKILGVSKKERDKLTTVYEIIKELSEKSELVEHEDIAEEAKKKGIKEDELENIIKKLIKYGDIDEPKPGRYRLL | failed
MISTMYSEETSERSSFPSKRHLEDRTENREEHSKRLRPTSFRDQKVTIPQGWLDCPRFGQHIGLIIPSKVPLSESYNDCVPSGKRYNFKQWLTKIGLVIDLTNTTRYYHPNTELRQNRIEYVKIRCSGRDSVPDNVSVNTFVHEVTQFENHNLSEKYLLVHCTHGHNRTGFMIVHYLMRSRPMMSVTQALKIFSDARPPGIYKPDYIDALYRFYHEVKPGSVICPPTPEWKRSEEAKFDDDDNALSYREVQGNNQEENVQLSNDDVLGDEIPYDQEVSYQNSINHMLNISMQFPGSHPLSLGREALQLLRQRYYYATWKADGTRYMMLLTRDGCYLVNREYRFRRVQMRFPCEYEPSDYKVHHYTLLDGEMVVDTIKEGETQRHVRRYLVYDLVAINGQFVAERPFSERWNILERELIKPRNDEKKVRDHWYRYDKEPFGVRIKAFCLLSAVEKKVFNELIPLLSHESDGLIFQGWDNPYVFGPNKDLLKWKFVETLDFLFDMDKYGRQMLFLQERGRMKLMEGFAVEFRGDGWDNDLASYCGKIVECSWDKEKKVWVSLRIRVDKSKPNGIGTGRSVIKCIEDDLTKEVLLKEIKEIILLPMYVERIENDTKEAARRKHGNRKG | failed
MITETQLTAIQTYALQKLAHDHSGHGRDHLQRVNRLARRLAKDEGANLNLTLAAAWLHDVIDDKLMANPAKAHQDLIVQLNAQNVTADDQTAIFAIIDHMSFSKSFNGPQKLSLEGQVVQDADRLDAIGAIGIARALYYSGHVGEKIYDPAIAPREHMTREQYRHQPGTAINHFYEKLFKLAALMNTDTAKALAAHRTAVMHEFVDQFKAEWTADDKALEHHHHHH | not failed
MITFEKVTVENENVVKEMFRSHSLSEKQVQYCVKVDDTYIGVIDYRVQGETAILSQLIIHFDYQSYGYGTNTYFTFEMMMKERNVKEIKVLQTELTEPVKSFIESFGFNVEDG | failed
MITFRKRVEIEADPAEVFRVISDPWRITEFWKGTRQVIEDGDFYRIRFAFPAWGLMSFHPDAERMTVLTSYLKGPVRGSKVDAVLVSSGKTVLQTEWNVRLSFYLRPFERRIASHFESGADHAINRIKESVEKDKK | failed
MITHISPAGSMDLLSQLEVERLKKTASSDLYQLYRNCTLAVLNSGSHTDNSKELLDKHQSFDVNVVRRERGIKLELTDPPEHAFVDGEIIKGIQEHLFSVLRDIVYVNMHLADSQRLNLTNPTHITNLVFGILRNAGALTPGIEPNLVVCWGGHSINGVEYQYTREVGNELGLRELNICTGCGPGAMEGPMKGAAIGHAKQRYTEQRYLGLTEPSIIAA | failed
MITIITLLLVVLISAIIVRIGAVALEMTGLSRDVAAFQAQSAFSGVGFTTSESEYVVSHPVRRRIIRILMLLGSAGVTSAIATLVLSFVGTTKEEAGYRMVVLLIGLLALYLFFRSKFIERVMRKAIKKGLSRLAPSLRVIDYSQLLGITRGYSIVQIKVKRRSWLADKTLRDLQLDKEGVLVLGIYRKVNGRRVYLGAPHGSTKVLPGDELILYGPEDVLMSLSKRLKGAKGEKEHVEAMEMAKARRVQEEREAGISV | failed
MITLKQALSLSQDELETLKNEIDAKVRASDLNAYIKAPSLNGASAKGVPILIKDNISVKGWEITCSSKILEGYVAPYHASVMENLHQNSMAGFGLSNMDEFAMGSTTESSCYGITKNPRDKNRVPGGSSGGSAAAVAGGLAVAALGSDTGGSIRQPASYCGCVGLKPTYGRVSRYGLIAYCSSFDQIGPITQNVEDASILFDAISGYDSKDSTSANLKPTQTFKNLNRDKRFKIAVLMDHIKDASNEVQLAYENTLKALKEMGHEIVEKKMLDSHYQISIYYIISMAEASSNLARFDGVRYGRRAQNIKDLKELYLKSRSEGFGDEVKRRIMLGNFVLSSGYYDAYYLKAQQMRLIIKEQYNKIFEEVDLIFTPVAPTSAHLFNYHASPLEMYLSDIYTIGANLSGLPALSLPVAKDPLGLPIGMQFIAKAFDEQSLLDVSYALEQELDLKLD | failed
MITRTIRGILKGAAVFLGLAGAIALLHAFGLDSTLDTAWIDSHIRDHGLQGHLLYIGIAGVLTALAVPRQFVSFLGGYAFGAAFGTLWATVGATLGCMLTFFYARFAGQSLVNRRFSHRVARVNAFLSRNPFTMTFIIRCLPVGNNVLTNLIAGVSSIPAVQFFAGSFIGYIPQHFIFALLGSGVHVSPVLRTVTSALLFVLSSVFGYMLYRRYRIDRDLEEPDDQ | failed
MITTRTARQCGQADYGWLQARYTFSFGHYFDPKLLGYASLRVLNQEVLAPGAAFQPRTYPKVDILNVILDGEAEYRDSEGNHVQASAGEALLLSTQPGVSYSEHNLSKDKPLTRMQLWLDACPQRENPLIQKLALNMGKQQLIASPEGAMGSLQLRQQVWLHHIVLDKGESANFQLHGPRAYLQSIHGKFHALTHHEEKAALTCGDGAFIRDEANITLVADSPLRALLIDLPV | not failed
MITVVIASRLREDRLDYLTAMHASLTRQSVPWEAVIALDGASPDRLPRQLAQDPRVDTLVLPRPVGAACARNLALTQVRTRYVNWADDDDEFTDDAMSVRLETLESTGVGWCAGWSEDQFRDGSTRLWRCPTPPGRHEAGDVWTFWKSPADTIPIGPTTILARTDLVRAAPMGGLVQGEDYCAALGVTALAPGILLPLPVYRYRKWGGQMTAQDGYDQLETAAREHAWAYGRSLRAVLRGGEDLVHVLEHHHHHH | failed
MIVAFENNVVCSDEKVRDYLLAHHADLKEDQDEDALCLVRLHKEEDIDGTDRVDLAGWREISRELYWTGEQMECNYSIIRFSRKTTSLQMSVVLSTCNQLEWLEKVLWGYEAQDTKNFELIIADDGSRKETYDMLQRITPQLSFQVKHVWHEDKGFRKCDILNKGILAAQADYLLFSDGDCIPRKDFVSTHLCLRRKGRFLSGGYHKLSMDLSKDITKDDILSGRCFDLQWMRGKGMPASFKNNKLTATGFKRWALNTFTPTKASWNGHNASGWLSDILAVNGFDERMQYGGQDREFGERLENYGIHGMQIRYSTVCLHLDHARGYKTKDSIQKNRNIRKHTRGAKVQWASLGIVKDELRGQSVKVNSYYDRYTREEEKLTSYKEKGGFYRHIYSLPCRWRRAKYHDKVVRAYQQDTDAPALSNHSGVIVSLTTFPPRISQLHLMLKSILWQTCPPEKIIVWLSEQEFPGRLNDLPEELKRLMAKGIAFRFVSENFRSHKKYHYVFREYPDSKVITVDDDLIYPRNTVERLLSLSYQYPDTVCGNVIRKIHMDGNSFSVYRKWTKVFTMPVNSSLQNVAIGCGGIYYPPHWYGEELFDWKIISEHCPSADDLWLKANELKRRVKVTGGGEFYPRPIELPQTQNNSLQKKNNGKTNLNDKQWKSLNELWKLDELYCINGK | failed
MIVIPMAGMSSRFFKAGYTQPKYMLEAHGQTLFEHSVNSFAAYFASTPFLFIVRNVYDTAVFVREKATQLGIKQFYIAELHTETRGQAETVTLGLEELAKQGVDYQGSITVFNIDTFRPNFVFPDISQHSDGYLEVFQGGGDNWSFAKPEHAGSTKVIQTAEKNPISDLCSTGLYHFNRKEDYLEAYREYVARPSQEWERGELYIAPLYNLLIQKGLNIHYHLIARHEVIFCGVPDEYTDFLRQPQPLEHHHHHH | not failed
MIVRRTIDKDELKELPKTVFPGRIYVIQSEAETEKAVAYLQSRPVIGIDSETRPSFTKGQSHKVALLQISSEECCFLFRLNMTGLTQPLVDLLENPAVIKVGLSLKDDFMMLHKRAPFTQQSCIELQDYVRQFGIQDKSLQKIYAILFKEKISKSQRLSNWEADVLSDGQKQYAATDAWACLNIYNLLQELKQTGDWEVSPLTATVSPAEEVISNKISD | failed
MIWNIDYFCNLRCKSCNAWQGKIFFPEDQIDKHLQEMKNNGIKIVSVTGGEPTLNKNVVDIIRKLKENHFFTHIATNGTNPYVLRKLYPYLDAVTISLDSNIPEEHNAYRGLKIFDTVVSNIKEAKSKVKIVTANMLVTNF | failed
